{
  "source": "paper doi:10.1101/2023.04.27.538407",
  "key": {"[1]": {"target": "MYPT1-C2 peptide 35, R693 replaced by alanine (human)", "assay": "peptide or protein array"}, "[2]": {"target": "MYPT1-C2 peptide 35, R694 replaced by alanine (human)", "assay": "peptide or protein array"}, "[3]": {"target": "MYPT1-C2 peptide 35, S695 replaced by alanine (human)", "assay": "peptide or protein array"}, "[4]": {"target": "MYPT1 (endogenous, human platelets) (human (endogenous in platelets))", "sequence (O14974 whole entry)": "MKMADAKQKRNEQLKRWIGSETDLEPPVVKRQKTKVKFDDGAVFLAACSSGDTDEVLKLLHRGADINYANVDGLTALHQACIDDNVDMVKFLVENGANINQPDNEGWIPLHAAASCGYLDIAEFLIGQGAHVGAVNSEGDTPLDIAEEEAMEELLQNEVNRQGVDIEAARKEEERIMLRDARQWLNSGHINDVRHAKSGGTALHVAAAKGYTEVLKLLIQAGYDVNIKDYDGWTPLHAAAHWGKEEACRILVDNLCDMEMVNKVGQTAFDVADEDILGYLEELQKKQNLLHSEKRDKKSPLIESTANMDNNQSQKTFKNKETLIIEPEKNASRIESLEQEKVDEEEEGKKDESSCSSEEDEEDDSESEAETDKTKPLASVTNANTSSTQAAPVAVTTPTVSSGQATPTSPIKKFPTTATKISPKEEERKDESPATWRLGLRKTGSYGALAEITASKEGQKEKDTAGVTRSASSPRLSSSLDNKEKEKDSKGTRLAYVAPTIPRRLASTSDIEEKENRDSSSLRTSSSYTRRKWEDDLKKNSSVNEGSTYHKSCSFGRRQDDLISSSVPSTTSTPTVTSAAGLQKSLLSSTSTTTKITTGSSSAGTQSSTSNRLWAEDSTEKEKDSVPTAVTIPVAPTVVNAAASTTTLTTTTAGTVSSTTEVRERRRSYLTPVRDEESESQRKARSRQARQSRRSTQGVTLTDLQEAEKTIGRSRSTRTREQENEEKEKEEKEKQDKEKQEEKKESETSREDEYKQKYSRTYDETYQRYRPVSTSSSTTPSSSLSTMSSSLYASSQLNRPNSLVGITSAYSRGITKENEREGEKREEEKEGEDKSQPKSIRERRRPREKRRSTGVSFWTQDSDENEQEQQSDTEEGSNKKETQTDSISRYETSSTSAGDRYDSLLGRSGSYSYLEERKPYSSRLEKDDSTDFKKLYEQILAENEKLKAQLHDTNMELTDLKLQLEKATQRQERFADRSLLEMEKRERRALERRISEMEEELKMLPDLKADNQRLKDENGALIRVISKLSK", "assay": "proximity ligation"}},
  "data": [
    {"substance": "His-tagged PKA-RIIβ (from UniProt P31323 1-418) (natural protein)", "values": [
      {"measurement": "reduction of binding against the non-mutated peptide", "setting": "[1]", "value": 50, "unit": "%"},
      {"measurement": "reduction of binding against the non-mutated peptide", "setting": "[2]", "value": 50, "unit": "%"},
      {"measurement": "reduction of binding against the non-mutated peptide", "setting": "[3]", "value": 50, "unit": "%"}
    ]},
    {"substance": "His-tagged PKA-RIβ (from UniProt P31321 1-381) (natural protein)", "values": [
      {"measurement": "reduction of binding against the non-mutated peptide", "setting": "[1]", "value": 50, "unit": "%"},
      {"measurement": "reduction of binding against the non-mutated peptide", "setting": "[2]", "value": 50, "unit": "%"},
      {"measurement": "reduction of binding against the non-mutated peptide", "setting": "[3]", "value": 50, "unit": "%"}
    ]},
    {"substance": "PKA-RI (endogenous, human platelets) (from UniProt P10644 1-381) (natural protein)", "values": [
      {"measurement": "PLA dots per platelet (dots per platelet)", "setting": "[4]", "value": 1.48}
    ]},
    {"substance": "PKA-RIIα (endogenous, human platelets) (from UniProt P13861 1-404) (natural protein)", "values": [
      {"measurement": "PLA dots per platelet (dots per platelet)", "setting": "[4]", "value": 1.01}
    ]},
    {"substance": "PKA-RIIβ (endogenous, human platelets) (from UniProt P31323 1-418) (natural protein)", "values": [
      {"measurement": "PLA dots per platelet (dots per platelet)", "setting": "[4]", "value": 0.97}
    ]}
  ]
}
